Measured values reported in the supplement of paper PMC5998384.

Columns and labels:
HeLa Kyoto [1] = experiment: thermal stability score vs G1/S (z-score of summed log2 fold changes over temperatures); higher = more thermally stable than in G1/S
HeLa Kyoto [2] = experiment: solubility in G1/S (NP-40 vs SDS abundance) (log2 ratio); higher = more soluble; conditions: cell cycle stage: G1/S
HeLa Kyoto [3] = experiment: solubility change mitosis vs G1/S (difference of NP-40 vs SDS log2 ratios) (log2 ratio difference); higher = more soluble in mitosis
HeLa Kyoto [4] = experiment: melting temperature (median over replicates), in situ; higher = more thermally stable
[5] = cell cycle stage: early G1 (4.5 h after nocodazole release)
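For melting temperature (median over replicates), in situ in this document: HeLa Kyoto cells synchronized by double thymidine or nocodazole block, proteins quantified by TMT10plex mass spectrometry, three independent biological replicates.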
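For solubility change mitosis vs G1/S (difference of NP-40 vs SDS log2 ratios) in this document: synchronized HeLa Kyoto cells (double thymidine block for G1/S, nocodazole release for mitosis), protein amounts in NP-40 versus SDS lysates quantified by mass spectrometry, three biological replicates.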
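For solubility in G1/S (NP-40 vs SDS abundance) in this document: HeLa Kyoto cells arrested at G1/S by double thymidine block, proteins quantified by TMT10plex mass spectrometry in mild NP-40 versus SDS extracts, three biological replicates.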
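For thermal stability score vs G1/S (z-score of summed log2 fold changes over temperatures) in this document: synchronized HeLa Kyoto cells, proteins quantified by TMT10plex mass spectrometry, three biological replicates, mitosis taken 0.5 h after nocodazole release, G1/S directly after double thymidine block.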

Substance | thermal stability score (HeLa Kyoto [1]; [5]) | thermal stability score (HeLa Kyoto [1]; cell cycle stage: mitosis) | solubility in G1/S (log2) (HeLa Kyoto [2]) | solubility change mitosis (log2) (HeLa Kyoto [3]) | melting temperature (HeLa Kyoto [4]; cell cycle stage: G1/S) | melting temperature (HeLa Kyoto [4]; cell cycle stage: mitosis)
MHKHQHCCKCPECYEVTRLAALRRLEPPGYGDWQVPDPYGPGGGNGASAGYGGYSSQTLPSQAGATPTPRTKAKLIPTGRDVGPVPPKPVPGKSTPKLNGSGPSWWPECTCTNRDWYEQVNGSDGMFKYEEIVLERGNSGLGFSIAGGIDNPHVPDDPGIFITKIIPGGAAAMDGRLGVNDCVLRVNEVDVSEVVHSRAVEALKEAGPVVRLVVRRRQPPPETIMEVNLLKGPKGLGFSIAGGIGNQHIPGDNSIYITKIIEGGAAQKDGRLQIGDRLLAVNNTNLQDVRHEEAVASLKNTSDMVYLKVAKPGSLHLNDMYAPPDYASTFTALADNHISHNSSLGYLGAVESKVSYPAPPQVPPTRYSPIPRHMLAEEDFTREPRKIILHKGSTGLGFNIVGGEDGEGIFVSFILAGGPADLSGELRRGDRILSVNGVNLRNATHEQAAAALKRAGQSVTIVAQYRPEEYSRFESKIHDLREQMMNSSMSSGSGSLRTSEKRSLYVRALFDYDRTRDSCLPSQGLSFSYGDILHVINASDDEWWQARLVTPHGESEQIGVIPSKKRVEKKERARLKTVKFHARTGMIESNRDFPGLSDDYYGAKNLKGQEDAILSYEPVTRQEIHYARPVIILGPMKDRVNDDLISEFPHKFGSCVPHTTRPRRDNEVDGQDYHFVVSREQMEKDIQDNKFIEAGQFNDNLYGTSIQSVRAVAERGKHCILDVSGNAIKRLQQAQLYPIAIFIKPKSIEALMEMNRRQTYEQANKIYDKAMKLEQEFGEYFTAIVQGDSLEEIYNKIKQIIEDQSGHYIWVPSPEKL [DLG3] | -0.454 | -1.05 | 0.141 | -0.139 | 52.9 °C | 53.1 °C
MHPPETTTKMASVRFMVTPTKIDDIPGLSDTSPDLSSRSSSRVRFSSRESVPETSRSEPMSEMSGATTSLATVALDPPSDRTSHPQDVIEDLSQNSITGEHSQLLDDGHKKARNAYLNNSNYEEGDEYFDKNLALFEEEMDTRPKVSSLLNRMANYTNLTQGAKEHEEAENITEGKKKPTKTPQMGTFMGVYLPCLQNIFGVILFLRLTWVVGTAGVLQAFAIVLICCCCTMLTAISMSAIATNGVVPAGGSYFMISRALGPEFGGAVGLCFYLGTTFAAAMYILGAIEIFLVYIVPRAAIFHSDDALKESAAMLNNMRVYGTAFLVLMVLVVFIGVRYVNKFASLFLACVIVSILAIYAGAIKSSFAPPHFPVCMLGNRTLSSRHIDVCSKTKEINNMTVPSKLWGFFCNSSQFFNATCDEYFVHNNVTSIQGIPGLASGIITENLWSNYLPKGEIIEKPSAKSSDVLGSLNHEYVLVDITTSFTLLVGIFFPSVTGIMAGSNRSGDLKDAQKSIPIGTILAILTTSFVYLSNVVLFGACIEGVVLRDKFGDAVKGNLVVGTLSWPSPWVIVIGSFFSTCGAGLQSLTGAPRLLQAIAKDNIIPFLRVFGHSKANGEPTWALLLTAAIAELGILIASLDLVAPILSMFFLMCYLFVNLACALQTLLRTPNWRPRFRYYHWALSFMGMSICLALMFISSWYYAIVAMVIAGMIYKYIEYQGAEKEWGDGIRGLSLSAARFALLRLEEGPPHTKNWRPQLLVLLKLDEDLHVKHPRLLTFASQLKAGKGLTIVGSVIVGNFLENYGEALAAEQTIKHLMEAEKVKGFCQLVVAAKLREGISHLIQSCGLGGMKHNTVVMGWPNGWRQSEDARAWKTFIGTVRVTTAAHLALLVAKNISFFPSNVEQFSEGNIDVWWIVHDGGMLMLLPFLLKQHKVWRKCSIRIFTVAQLEDNSIQMKKDLATFLYHLRIEAEVEVVEMHDSDISAYTYERTLMMEQRSQMLRHMRLSKTERDREAQLVKDRNSMLRLTSIGSDEDEETETYQEKVHMTWTKDKYMASRGQKAKSMEGFQDLLNMRPDQSNVRRMHTAVKLNEVIVNKSHEAKLVLLNMPGPPRNPEGDENYMEFLEVLTEGLERVLLVRGGGSEVITIYS [SLC12A6] | -0.231 | -0.0357 | -0.0182 | 0.00121 | 54.8 °C | 54.4 °C
MHPPKTPSGALHRKRKMAAWPFSRLWKVSDPILFQMTLIAALLPAVLGNCGPPPTLSFAAPMDITLTETRFKTGTTLKYTCLPGYVRSHSTQTLTCNSDGEWVYNTFCIYKRCRHPGELRNGQVEIKTDLSFGSQIEFSCSEGFFLIGSTTSRCEVQDRGVGWSHPLPQCEIVKCKPPPDIRNGRHSGEENFYAYGFSVTYSCDPRFSLLGHASISCTVENETIGVWRPSPPTCEKITCRKPDVSHGEMVSGFGPIYNYKDTIVFKCQKGFVLRGSSVIHCDADSKWNPSPPACEPNSCINLPDIPHASWETYPRPTKEDVYVVGTVLRYRCHPGYKPTTDEPTTVICQKNLRWTPYQGCEALCCPEPKLNNGEITQHRKSRPANHCVYFYGDEISFSCHETSRFSAICQGDGTWSPRTPSCGDICNFPPKIAHGHYKQSSSYSFFKEEIIYECDKGYILVGQAKLSCSYSHWSAPAPQCKALCRKPELVNGRLSVDKDQYVEPENVTIQCDSGYGVVGPQSITCSGNRTWYPEVPKCEWETPEGCEQVLTGKRLMQCLPNPEDVKMALEVYKLSLEIEQLELQRDSARQSTLDKEL [C4BPA] | 5.62 | 9.17 | -0.459 | -0.146 | 54.4 °C | 56.1 °C
MHSRGREIVVLLNPWSINEAVSSYCTYFIKQDSKSFGIMVSWKGIYFILTLFWGSFFGSIFMLSPFLPLMFVNPSWYRWINNRLVATWLTLPVALLETMFGVKVIITGDAFVPGERSVIIMNHRTRMDWMFLWNCLMRYSYLRLEKICLKASLKGVPGFGWAMQAAAYIFIHRKWKDDKSHFEDMIDYFCDIHEPLQLLIFPEGTDLTENSKSRSNAFAEKNGLQKYEYVLHPRTTGFTFVVDRLREGKNLDAVHDITVAYPHNIPQSEKHLLQGDFPREIHFHVHRYPIDTLPTSKEDLQLWCHKRWEEKEERLRSFYQGEKNFYFTGQSVIPPCKSELRVLVVKLLSILYWTLFSPAMCLLIYLYSLVKWYFIITIVIFVLQERIFGGLEIIELACYRLLHKQPHLNSKKNE [LCLAT1] | -2.01 | -2.82 | -0.201 | -0.165 | 55.1 °C | 54.7 °C
MIA3 | 3.98 | 7.12 | 0.245 | -0.082 | 51.4 °C | 52.2 °C
